The source of these data is publication doi:10.1101/2023.08.23.554525 (bioRxiv, 2023).

Holding throughout (conditions): both partners purified
Test [1] concerns the target H1 hemagglutinin (A/New Caledonia/20/1999(H1N1)), recombinant HA trimer used for electron microscopy (influenza A virus A/New …, UniProt Q6WG00). Nature of the test: cryo-EM structure.
In test [2] the target is T1, biotinylated H1 A/NewCaledonia/20/1999 (NC99) HA ectodomain (Influenza A virus A/New …, UniProt Q6WG00, strain, biotin (site not stated)). Nature of the test: BLI; Octet Red384; […]; Fab at 1600, 400, 100 and 25 nM; PBS + 1% BSA; 180 s association, 300 s dissociation. (In general: Biolayer interferometry detects binding as a change in optical thickness at a sensor tip.)

Test [3] concerns the target biotinylated H1 A/Michigan/45/2015 (MI15) HA ectodomain (Influenza A virus A/Michigan/45/2015 …, UniProt A0A1J0CXU0, strain, biotin (site not stated)). Described as above.
The target in test [4] is T1, biotinylated H1 A/NewCaledonia/20/1999 …. Nature of the test: […] (MSD) binding assay; […].

B1: 1-1-1F05 Fab (Fab, V domains shown)
VH: QVQLQESGPGLVKPSATLSLTCTLSGGSLSTHYWSWIRQPPGKGLEYIGNIHYSGSTNYNPSLRSRVTISVGTSKNQFSLKLTSVTAADTAVYYCARDAPYSDFLSGVETGWFDPWGQGTLVIVSS
VL: EIVMTQSPATLSVSPGERATLSCRASQSVSSNLAWYQQKPGQAPRLLIYGASTRATGIPARFSGSGSGTDFTLTISSLQSEDFAVYSCQQYNNWPWTFGQGTKVEIK
notes: source: Expi293, transfected, IgG purified (Protein A); Fab by papain digestion, SEC
B1: in test [1], the binding result is recorded as “binds”.

B2: 2-2-1G06 Fab (Fab, V domains shown)
VH: QVQLRESGPGLVKPSQTLSLTCTVSGDSISNGGLYWNWIRQRPGRGLEWIGYIYYNGVTTYNPSLRSRIAISLETAKNQLSLRLSSVSAADTAIYYCAREGWVPDYGGRNYYLDFWGQGTLVTVSS
VL: DIQMTQSPSSLSASVGDRVTITCRASHNIQNFLNWYQQKPGKAPKLLIYAASTLQSGVPSRFSGSGSRTDFTLTISSLQPEDFAAYYCQQSYGLPRTFGQGTRLEIK
Take B2: the binding result in test [1], in test [2] and in test [3] was “binds” in each case.

B3: 2-2-1G06 monoclonal antibody (IgG1) (antibody, V domains shown)
VH: B2 VH
VL: B2 VL
notes: IgG1; copies: 2 + 2
Regarding B3, the binding result in test [4] is “binds”.

B4: 1-1-1E04 Fab (Fab, V domains shown)
VH: QVQLVQSGAQLRKPGSSVTVSCKASGDTFNSYSIHWVRQAPGQGLEWMGRIIPVFGMTHYAQRFRGRITVSADKSTRTAYMELTSLTSADTAMYYCARDGGDKFHSSGHFETNQGYFDHWGQGALVTVSS
VL: QSVLTQPPSVSGAPGQRVTVSCTGSSSNLGATYEVHWYQQFPGTAPKLLIYGSTNRPSGVPERFSGSKSGTSASLTITGLQAEDEADYYCQSYDTSLRGFYVFGTGTKVTVL
notes: Parent IgG1
Turning to B4, the binding result in test [1] is on record as “binds”.
